Source: patent US20100158922A1

Target: recombinant human IFNγ (human) (UniProt P01579)
Assay: cell-based or functional assay

Sequence of recombinant human IFNγ (human) (P01579 24-166 limits assumed): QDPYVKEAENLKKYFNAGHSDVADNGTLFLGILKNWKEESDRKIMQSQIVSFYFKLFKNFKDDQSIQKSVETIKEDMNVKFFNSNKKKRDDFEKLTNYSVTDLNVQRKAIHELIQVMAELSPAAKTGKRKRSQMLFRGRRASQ

B1: AC1.2R3P7_D3 scFv (scFv, part only; not given: scFv linker, part only)
scFv, part: EVQLLESGGGLVQPGGSLKLSCAASGFTFSSNAMSWVRQAPGKGLEWVSTLTGSGGTAYYADSVEGRFSISRDNSKNTLYLQMNSLRAEDTAVYYCAKGTELVGGGLDNWGQGTLVTVSSNFMLTQPHSLSESPGKTVTISCTGSGGSIATNYVQWYQQRPGSAPTTVIHEDNQRPSGVPDRFSGSIDGSSNSASLTISGLQPEDEADYYCQSYDSDNHHVVFGGGTKLTVLG
- Percentage inhibition of IFNγ-induced reporter gene expression at 0.011 nM scFv: 20%
- Percentage inhibition of IFNγ-induced reporter gene expression at 0.043 nM scFv: 28%
- Percentage inhibition of IFNγ-induced reporter gene expression at 0.17 nM scFv: 36%
- Percentage inhibition of IFNγ-induced reporter gene expression at 0.68 nM scFv: 55%
- Percentage inhibition of IFNγ-induced reporter gene expression at 2.7 nM scFv: 69%
